System: Rx-GFP ES cells
Assay: SFEBq culture with purified laminin/entactin and Nodal/Activin, formation of RxGFP+ vesicles and cup structures (Example 6)
Format: cell-based, mouse
Conditions: for replacement of the retinal inducing activity of Nodal: 1000 ng/ml; for replacement of the retinal inducing activity of Nodal / appearance of Rx-GFP+ epithelia in SFEBq aggregates / morphology of Rx-GFP+ epithelia: combined with laminin+entactin; for appearance of Rx-GFP+ epithelia in SFEBq aggregates / morphology of Rx-GFP+ epithelia: treatment days 1-7; for appearance of Rx-GFP+ epithelia in SFEBq aggregates: Nodal 500 and 1000 ng/ml, Activin 250 ng/ml, read on day 7; for morphology of Rx-GFP+ epithelia: day 7 and day 10; for effect on neural (Sox1) and retinal (Rx) differentiation: treatment of SFEBq cells from day 0
Method: Rx-GFP ES cells (3000 cells/well, 96-well plate) were cultured in SFEBq culture with G-MEM supplemented with 1.5% KSR. In this experiment, instead of adding Matrigel to culture, purified laminin and entactin (High concentration Laminin/Entactin complex; BD; 120 μg/ml) were added as extracellular matrix proteins on day 1 (24 hours after the onset of differentiation culture). Recombinant Mouse Nodal (R&D; 500-1000 ng/mL) or Human Activin (R&D; 250 ng/ml) was also added on day 1 and the Nodal treatment was continued until day 7. SFEBq aggregates were cultured for 7-10 days and the formation of RxGFP+ vesicles and cup structures were examined under a fluorescent microscope. Nodal and Activin are known to act on common cell surface receptors and activate Smad2/3 signals in the cell.

“TGF-beta1: growth factor tested at 1000 ng/ml in place of Nodal” was tested, and the “replacement of the retinal inducing activity of Nodal” value was “did not replace the inducing activity of Nodal”.

B1: Activin: Human Activin (R&D); acts on cell surface receptors common with Nodal and activates Smad2/3 signals (protein, UniProt P08476 311-426, looked up)
Inhibin beta A chain: GLECDGKVNICCKKQFFVSFKDIGWNDWIIAPSGYHANYCEGECPSHIAGTSGSSLSFHSTVINHYRMRGHSPFANLKSCCVPTKLRPMSMLYYDDGQNIIKKDIQNMIVEECGCS
For B1, the “appearance of Rx-GFP+ epithelia in SFEBq aggregates” value was “large patches of Rx-GFP+ epithelia appeared”, the “morphology of Rx-GFP+ epithelia” value was “formed optic vesicle-like sacs on day 7 and later exhibited the optic cup-like morphology on day 10” and the “effect on neural (Sox1) and retinal (Rx) differentiation” value was “inhibited both neural (Sox1) and retinal (Rx) differentiation”.

B2: TGF-beta2: growth factor tested at 1000 ng/ml in place of Nodal; printed as 'TGF-beta1 or 2' (protein, UniProt P61812 303-414, looked up)
Transforming growth factor …: ALDAAYCFRNVQDNCCLRPLYIDFKRDLGWKWIHEPKGYNANFCAGACPYLWSSDTQHSRVLSLYNTINPEASASPCCVSQDLEPLTILYYIGKTPKIEQLSNMIVKSCKCS
In the case of B2, the “replacement of the retinal inducing activity of Nodal” value is reported as “did not replace the inducing activity of Nodal”.

B3: Nodal: Recombinant Mouse Nodal (R&D); acts on cell surface receptors common with Activin and activates Smad2/3 signals (protein, UniProt P43021 245-354, looked up)
Nodal: HHLPDRSQLCRRVKFQVDFNLIGWGSWIIYPKQYNAYRCEGECPNPVGEEFHPTNHAYIQSLLKRYQPHRVPSTCCAPVKTKPLSMLYVDNGRVLLEHHKDMIVEECGCL
With B3 the “appearance of Rx-GFP+ epithelia in SFEBq aggregates” value was “large patches of Rx-GFP+ epithelia appeared”, the “morphology of Rx-GFP+ epithelia” value was “formed optic vesicle-like sacs on day 7 and later exhibited the optic cup-like morphology on day 10” and the “effect on neural (Sox1) and retinal (Rx) differentiation” value was “inhibited both neural (Sox1) and retinal (Rx) differentiation”.

From patent publication US12091680B2, “Method for differentiation induction in cultured stem cells” (RIKEN, priority 2009, dated 2024)
